{"source": "patent US20100144025A1", "binders": {"B1": {"name": "SEQ ID NO 45 (peptide)", "peptide": "HVLGRLITV", "modifications": "not checked"}, "B2": {"name": "SEQ ID NO 27 (peptide)", "peptide": "IVLEHGSCV", "modifications": "not checked"}, "B3": {"name": "SEQ ID NO 50 (peptide)", "peptide": "QILEENVEV", "modifications": "not checked"}, "B4": {"name": "SEQ ID NO 47 (peptide)", "peptide": "YVVIAILTV", "modifications": "not checked"}, "B5": {"name": "SEQ ID NO 41 (peptide)", "peptide": "LVISGLFPV", "modifications": "not checked"}, "B6": {"name": "SEQ ID NO 43 (peptide)", "peptide": "LALLAAFKV", "modifications": "not checked"}, "B7": {"name": "SEQ ID NO 48 (peptide)", "peptide": "SVIEKMEAL", "modifications": "not checked"}, "B8": {"name": "SEQ ID NO 49 (peptide)", "peptide": "RTLRVLNLV", "modifications": "not checked"}, "B9": {"name": "SEQ ID NO 15 (peptide)", "peptide": "YMPSVIEKM", "modifications": "not checked"}, "B10": {"name": "SEQ ID NO 31 (peptide)", "peptide": "RLITVNPIV", "modifications": "not checked"}, "B11": {"name": "SEQ ID NO 34 (peptide)", "peptide": "SLRPQPTEL", "modifications": "not checked"}, "B12": {"name": "SEQ ID NO 35 (peptide)", "peptide": "FLIDGPETA", "modifications": "not checked"}, "B13": {"name": "SEQ ID NO 36 (peptide)", "peptide": "FQPESPSKL", "modifications": "not checked"}, "B14": {"name": "SEQ ID NO 9 (peptide)", "peptide": "ELPETLETL", "modifications": "not checked"}, "B15": {"name": "SEQ ID NO 38 (peptide)", "peptide": "ALHQVFGAI", "modifications": "not checked"}, "B16": {"name": "SEQ ID NO 33 (peptide)", "peptide": "ILIRTGLLV", "modifications": "not checked"}, "B17": {"name": "SEQ ID NO 30 (peptide)", "peptide": "NLVRLQSGV", "modifications": "not checked"}, "B18": {"name": "SEQ ID NO 29 (peptide)", "peptide": "PLNEAIMAV", "modifications": "not checked"}, "B19": {"name": "SEQ ID NO 12 (peptide)", "peptide": "ALSELPETL", "modifications": "not checked"}, "B20": {"name": "SEQ ID NO 1 (peptide)", "peptide": "WYAQIQPHW", "modifications": "not checked"}, "B21": {"name": "SEQ ID NO 22 (peptide)", "peptide": "PMSTYGWNL", "modifications": "not checked"}, "B22": {"name": "SEQ ID NO 5 (peptide)", "peptide": "PFPQSNAPI", "modifications": "not checked"}, "B23": {"name": "SEQ ID NO 16 (peptide)", "peptide": "KLMKITAEW", "modifications": "not checked"}, "B24": {"name": "SEQ ID NO 21 (peptide)", "peptide": "ALVAFLRFL", "modifications": "not checked"}, "B25": {"name": "SEQ ID NO 8 (peptide)", "peptide": "GLNPTAIFL", "modifications": "not checked"}, "B26": {"name": "SEQ ID NO 7 (peptide)", "peptide": "HWPKSHTLW", "modifications": "not checked"}, "B27": {"name": "SEQ ID NO 10 (peptide)", "peptide": "AWLVHRQWF", "modifications": "not checked"}, "B28": {"name": "SEQ ID NO 2 (peptide)", "peptide": "AFSGVSWTM", "modifications": "not checked"}, "B29": {"name": "SEQ ID NO 23 (peptide)", "peptide": "AYNHALSEL", "modifications": "not checked"}, "B30": {"name": "SEQ ID NO 11 (peptide)", "peptide": "TLYAVATTF", "modifications": "not checked"}, "B31": {"name": "SEQ ID NO 18 (peptide)", "peptide": "IQKETLVTF", "modifications": "not checked"}, "B32": {"name": "SEQ ID NO 20 (peptide)", "peptide": "GFLNEDHWF", "modifications": "not checked"}, "B33": {"name": "SEQ ID NO 19 (peptide)", "peptide": "ALHQVFGAI", "modifications": "not checked"}, "B34": {"name": "SEQ ID NO 25 (peptide)", "peptide": "DWIPLALTI", "modifications": "not checked"}}, "data": [{"target": "HLA-A2 molecule (the product of HLA-A*0206 gene) (human)", "values": [{"binder": "B1", "-log Kd": "6.25 -log Kd"}, {"binder": "B2", "-log Kd": "6.02 -log Kd"}, {"binder": "B3", "-log Kd": "5.61 -log Kd"}, {"binder": "B4", "-log Kd": "5.86 -log Kd"}, {"binder": "B5", "-log Kd": "6.61 -log Kd"}, {"binder": "B6", "-log Kd": "6.47 -log Kd"}, {"binder": "B7", "-log Kd": "6.37 -log Kd"}, {"binder": "B8", "-log Kd": "5.97 -log Kd"}]}, {"target": "HLA-A2 molecule (the product of HLA-A*0201 gene) (human)", "values": [{"binder": "B9", "-log Kd": "6.58 -log Kd"}, {"binder": "B10", "-log Kd": "5.64 -log Kd"}, {"binder": "B2", "-log Kd": "5.74 -log Kd"}, {"binder": "B11", "-log Kd": "5.05 -log Kd"}, {"binder": "B12", "-log Kd": "6.05 -log Kd"}, {"binder": "B13", "-log Kd": "6.31 -log Kd"}, {"binder": "B14", "-log Kd": "6.32 -log Kd"}, {"binder": "B15", "-log Kd": "6.77 -log Kd"}, {"binder": "B16", "-log Kd": "6.53 -log Kd"}, {"binder": "B17", "-log Kd": "4.7 -log Kd"}, {"binder": "B18", "-log Kd": "6.49 -log Kd"}, {"binder": "B19", "-log Kd": "6.05 -log Kd"}]}, {"target": "HLA-A24 molecule (the product of HLA-A*2402 gene) (human)", "values": [{"binder": "B20", "-log Kd": "8.64 -log Kd"}, {"binder": "B21", "-log Kd": "7.62 -log Kd"}, {"binder": "B22", "-log Kd": "8.22 -log Kd"}, {"binder": "B9", "-log Kd": "7.17 -log Kd"}, {"binder": "B23", "-log Kd": "7.21 -log Kd"}, {"binder": "B24", "-log Kd": "5.68 -log Kd"}, {"binder": "B25", "-log Kd": "6.39 -log Kd"}, {"binder": "B26", "-log Kd": "8.66 -log Kd"}, {"binder": "B27", "-log Kd": "8.39 -log Kd"}, {"binder": "B28", "-log Kd": "8.19 -log Kd"}, {"binder": "B14", "-log Kd": "7.01 -log Kd"}, {"binder": "B29", "-log Kd": "7.68 -log Kd"}, {"binder": "B30", "-log Kd": "7.58 -log Kd"}, {"binder": "B31", "-log Kd": "7.24 -log Kd"}, {"binder": "B32", "-log Kd": "6.76 -log Kd"}, {"binder": "B33", "-log Kd": "6.05 -log Kd"}, {"binder": "B34", "-log Kd": "8 -log Kd"}, {"binder": "B19", "-log Kd": "5.5 -log Kd"}]}]}
